# Data reported in publication PMC11582648 (Nature Communications, 2024).
# T1: GST-CK1δ (human, UniProt P48730-2 1-409)
# T1 sequence: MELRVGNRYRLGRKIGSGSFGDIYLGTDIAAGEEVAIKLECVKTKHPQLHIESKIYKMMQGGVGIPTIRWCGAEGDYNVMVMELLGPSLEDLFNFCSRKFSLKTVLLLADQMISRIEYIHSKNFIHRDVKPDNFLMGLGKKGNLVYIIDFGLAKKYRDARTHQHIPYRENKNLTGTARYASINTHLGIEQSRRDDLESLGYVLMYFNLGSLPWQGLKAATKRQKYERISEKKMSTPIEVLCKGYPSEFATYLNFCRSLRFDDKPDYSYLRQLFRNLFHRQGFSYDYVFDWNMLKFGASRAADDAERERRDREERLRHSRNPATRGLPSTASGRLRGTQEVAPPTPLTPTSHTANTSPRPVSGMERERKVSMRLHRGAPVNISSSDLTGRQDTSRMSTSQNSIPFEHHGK
# Target: T1, GST-CK1δ
# Experiment: pull-down
binder,measurement,value
His-USP46 (enzyme) MTVRNIASICNMGTNASALEKDIGPEQFPINEHYFGLVNFGNTCYCNSVLQALYFCRPFRENVLAYKAQQKKKENLLTCLADLFHSIATQKKKVGVIPPKKFISRLRKENDLFDNYMQQDAHEFLNYLLNTIADILQEEKKQEKQNGKLKNGNMNEPAENNKPELTWVHEIFQGTLTNETRCLNCETVSSKDEDFLDLSVDVEQNTSITHCLRDFSNTETLCSEQKYYCETCCSKQEAQKRMRVKKLPMILALHLKRFKYMEQLHRYTKLSYRVVFPLELRLFNTSSDAVNLDRMYDLVAVVVHCGSGPNRGHYITIVKSHGFWLLFDDDIVEKIDAQAIEEFYGLTSDISKNSESGYILFYQSRE,binding result,binds
